Target: T1, MxiD[SctC] (Shigella flexneri, UniProt Q04641 23-566)
T1 construct: the last 18 residues (S549-Y566) are not resolved; 16 subunits in the connector (N0, N1), 15 in the OM ring (N3, secretin, S domain); also called secretin; OM ring
T1 sequence: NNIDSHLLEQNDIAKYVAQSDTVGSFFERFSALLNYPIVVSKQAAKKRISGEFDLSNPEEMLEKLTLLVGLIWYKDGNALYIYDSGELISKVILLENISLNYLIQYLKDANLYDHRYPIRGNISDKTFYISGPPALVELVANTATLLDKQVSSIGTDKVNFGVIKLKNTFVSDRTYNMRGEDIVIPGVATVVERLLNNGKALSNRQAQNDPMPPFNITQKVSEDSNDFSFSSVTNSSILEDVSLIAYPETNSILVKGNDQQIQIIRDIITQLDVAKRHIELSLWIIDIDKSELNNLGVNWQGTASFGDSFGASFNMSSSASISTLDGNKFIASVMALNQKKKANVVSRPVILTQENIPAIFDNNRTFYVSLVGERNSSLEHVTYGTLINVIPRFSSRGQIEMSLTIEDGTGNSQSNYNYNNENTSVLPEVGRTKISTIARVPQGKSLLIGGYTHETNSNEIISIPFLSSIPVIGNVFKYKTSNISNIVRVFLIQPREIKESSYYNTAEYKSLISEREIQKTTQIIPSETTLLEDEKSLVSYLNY
Assay: cross-linking; BS3 cross-linking mass spectrometry of the isolated needle complex; 0.2-0.3 mM BS3, 30 min, room temperature; 2% FDR at residue-pair level
Settings: both partners purified

B1: MxiM[SctG] (natural protein)
chain: CALKSSSNSEKEWHIVPVSKDYFSIPNDLLWSFNTTNKSINVYSKCISGKAVYSFNAGKFMGNFNVKEVDGCFMDAQKIAIDKLFSMLKDGVVLKGNKINDTILIEKDGEVKLKLIRGI
modifications: lipidated N-terminus
notes: MxiM[SctG], pilotin of the Shigella flexneri T3SS; also called pilotin; pilot protein
B1: binds.

From paper PMC10019453, “Integrative structural analysis of the type III secretion system needle complex from Shigella flexneri” (Protein Science : A Publication of the Protein Society, 2023)
